Test results as given in patent US5965443.

Legend:
[1] = molecular target: Tn5 transposase EK54 (with MA56, pRZ5412-EK54) P372L (Escherichia coli (transposon Tn5)?) (UniProt Q46731); test: cell_activity; settings: mutant at position 54 alone; MA56 background inferred
[2] = molecular target: Tn5 transposase EK54/MA56/LP372 (in-cell assay) (Escherichia coli (transposon Tn5)?) (UniProt Q46731); test: cell_activity; settings: at least about 100-fold transposase activity; assay substrate not detailed for this test
[3] = molecular target: Tn5 transposase LP372 K54E (Escherichia coli (transposon Tn5)?) (UniProt Q46731); test: cell_activity; settings: mutant at position 372 alone; MA56 background inferred
[4] = molecular target: T1, Tn5 transposase EK54/MA56/LP372 (modified, hyperactive) (Escherichia coli (transposon Tn5)?) (UniProt Q46731); settings: in vitro transposition; 0.1 M K glutamate, 25 mM Tris acetate pH 7.5, 10 mM Mg acetate, 20 C 60 min then 37 C 2-3 h; underestimates total events; scale: % of plasmid-receiving cells
T1 sequence: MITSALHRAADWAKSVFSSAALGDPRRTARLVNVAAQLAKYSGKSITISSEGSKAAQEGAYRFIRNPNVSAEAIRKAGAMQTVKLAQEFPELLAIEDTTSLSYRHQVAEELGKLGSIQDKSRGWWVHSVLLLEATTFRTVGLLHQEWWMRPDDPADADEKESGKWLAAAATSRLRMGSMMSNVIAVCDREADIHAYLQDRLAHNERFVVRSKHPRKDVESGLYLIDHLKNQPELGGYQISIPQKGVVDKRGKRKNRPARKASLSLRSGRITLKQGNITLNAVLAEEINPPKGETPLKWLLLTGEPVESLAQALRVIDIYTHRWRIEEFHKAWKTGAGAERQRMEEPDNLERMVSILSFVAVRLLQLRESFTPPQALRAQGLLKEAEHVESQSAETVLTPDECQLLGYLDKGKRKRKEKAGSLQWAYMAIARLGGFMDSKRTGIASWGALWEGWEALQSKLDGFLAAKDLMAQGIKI

Row | Substance | transposase activity (fold activity vs wild type) [1] | transposase activity (fold activity vs wild type) [2] | transposase activity (fold activity vs wild type) [3] | activity [4]
1 | lacZ-containing Tn5 transposable element in E. coli MDW320 | 10 | > 100 | 10 | 
2 | pRZTL1 circular plasmid (two inverted Tn5 19 bp OE termini) |  |  |  | 0.1
